Results as given in patent US20260108588A1, “A COMPLEX COMPRISING A ALPHA-LACTALBUMIN AND A FATTY ACID OR LIPID FOR USE IN THE TREATMENT OR PREVENTION OF CANCER” (LINNANE PHARMA AB, priority 2022, published 2026).

B1: HAMLET: tumoricidal unfolded protein-lipid complex of partially unfolded human α-lactalbumin and oleic acid (protein, UniProt P00709 20-142, looked up)
Alpha-lactalbumin: KQFTKCELSQLLKDIDGYGGIALPELICTMFHTSGYDTQAIVENNESTEYGLFQISNKLWCKSSQVPQSRNICDISCDKFLDDDITDDIMCAKKILDIKGIDYWLAHKALCTEKLEQWLCEKL
modifications: complexed with oleic acid

Columns and labels:
[1] = tested on: bladder cancer; settings: patients; cited from earlier work
[2] = tested on: DLD1 cells; test: Cell death assays (Prestoblue and ATPlite); assay type: cell-based, human; settings: 7, 21 and 35 μM each, FIG. 12g-i
Protocol: Two assays were used as an indirect measure of cell death. Luminescence-based ATPlite™ kit (Perkin Elmer) as well as the Prestoblue assay (ThermoFisher Scientific). Cells (5×10^4 cells/well) were seeded in serum-free RPMI-1640 on 96-well plates and treated with BAMLET and alpha1-oleate at different concentration (7, 21, and 35 μM) and incubated for one hour. Afterward, FCS was added at concentration of 5% and the cells were continuously incubated for two hours at 37° C., at the end of which the two kits were used according to manufactures' instructions. Luminescence and fluorescence were measured using a microplate reader (Infinite F200, Tecan). The experiments were performed in triplicate and repeated twice.

[3] = tested on: bladder cancer; settings: local instillations; cited from earlier work
[4] = tested on: skin papillomas; settings: topical application; cited from earlier work
[5] = tested on: tumor cells; settings: cited from earlier work

Molecule	therapeutic efficacy in bladder cancer [1]	tumoricidal effect, BAMLET compared with alpha1-oleate [2]	tumor size in bladder cancer [3]	effect on skin papillomas [4]	tumor cell killing in vitro [5]
alpha1-oleate: HAMLET family member formed by the N-terminal alpha-helical peptide (aa 1-39) of alpha-lactalbumin and oleate [reference compound]	has shown therapeutic efficacy	similar	–	–	–
B1	–	–	caused a reduction in tumor size	removed or reduced skin papillomas	kills many types of tumor cells
